Source: paper PMC4140777

Columns and labels:
[1] = molecular target: T1, β-bungarotoxin (β-BuTx) (Bungarus multicinctus) (UniProt P00618+P00987); assay: filter binding; settings: 20 mM HEPES pH 7.4, 150 mM NaCl, 5 mM KCl, 2 mM MgCl2, 2 mM CaCl2, room temperature
[2] = molecular target: T1, β-bungarotoxin (β-BuTx) (Bungarus multicinctus); assay: fluorescence anisotropy; settings: 20 mM HEPES pH 7.4, 150 mM NaCl, 5 mM KCl, 2 mM MgCl2, 2 mM CaCl2, room temperature

T1 sequence (P00618 26-145, chain 1 of 2): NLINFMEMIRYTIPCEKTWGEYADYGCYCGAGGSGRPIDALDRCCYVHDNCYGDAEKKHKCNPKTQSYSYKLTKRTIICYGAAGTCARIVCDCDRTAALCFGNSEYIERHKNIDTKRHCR
T1 sequence (P00987 25-85, chain 2 of 2): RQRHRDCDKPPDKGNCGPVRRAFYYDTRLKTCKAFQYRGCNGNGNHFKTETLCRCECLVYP

Row | Sequence | binding signal [1] [% bound] | Kd [2] [µM]
1 | AGCAGCACAGAGGTCAGATGGTTTTCCCCTTGTCGCTTTTGGTTCGTTCTGCCTCTATCTCCTATGCGTGCTACCGTGAA [βB-1] | 45 | 0.0659
2 | AGCAGCACAGAGGTCAGATGATTAGTCATGTTTGTTTGTCTGGCTTTTTGGGTTTGTGCAGTATTATGAACCCTATGCGTGCTACCGTGAA [βB-20] |  | 0.0838
3 | AGCAGCACAGAGGTCAGATGGCAATGCACCTTTGTCTCTTATAGTTTATTTTTTGCCTTCCTATGCGTGCTACCGTGAA [βB-32] |  | 0.995
4 | AGCAGCACAGAGGTCAGATGTTTGGTGTGGATCCTGAACATTTATATTCTTTCGTTTTTTCCTATGCGTGCTACCGTGAA [βB-19] |  | 0.53
